Results as given in US20210261685A1 (Alector, published 2021).

Tests used:
[1] = target: T1, human MerTK extracellular domain (ECD), recombinant (human, UniProt Q12866 21-505); experiment: SPR, Carterra LSA, antibody immobilised
T1 construct: also called huMerTK; not shown: polyHis tag or TEVS/Thrombin/murine IgG2a Fc tag
T1 sequence: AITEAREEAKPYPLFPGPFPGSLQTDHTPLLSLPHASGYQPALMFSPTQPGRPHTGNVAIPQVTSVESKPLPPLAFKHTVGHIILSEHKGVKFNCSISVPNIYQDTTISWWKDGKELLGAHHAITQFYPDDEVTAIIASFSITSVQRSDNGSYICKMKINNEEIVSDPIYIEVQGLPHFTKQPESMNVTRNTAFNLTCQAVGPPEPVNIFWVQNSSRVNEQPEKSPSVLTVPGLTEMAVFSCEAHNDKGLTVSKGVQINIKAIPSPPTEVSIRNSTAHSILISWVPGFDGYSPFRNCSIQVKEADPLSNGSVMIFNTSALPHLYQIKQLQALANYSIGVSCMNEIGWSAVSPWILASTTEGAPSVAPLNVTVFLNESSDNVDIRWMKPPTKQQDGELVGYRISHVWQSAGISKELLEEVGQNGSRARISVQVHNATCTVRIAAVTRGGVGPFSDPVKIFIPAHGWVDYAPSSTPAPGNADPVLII
Procedure: (§1) Binding kinetics of human anti-MerTK IgG1 LALAPS antibodies of the present disclosure to human, cyno, and murine MerTK were evaluated using a Carterra LSA instrument (Carterra, Salt Lake City, Utah). Briefly, anti-MerTK antibodies were prepared by diluting to 10 μg/ml in 10 mM Acetate, pH 4.25 (Carterra), at 300 μl/well. A HC200M sensor chip (Carterra) was activated using the single channel flow cell with a 7-minute injection of a 1:1:1 mixture of 100 mM MES pH 5.5, 100 mM sulfo-NHS, 400 mM EDC (all reconstituted in MES pH 5.5; 100 μl of each mixed in vial immediately before running assay). After switching to the multi-channel array flow cell, the antibodies were injected over the activated chip in a 96-spot array for 15 minutes. The remaining unconjugated active groups on the chip were then blocked by injecting 1M Ethanolamine pH 8.5 (Carterra) for 7 minutes using the single channel flow cell.
(§2) After priming with running buffer (HBS-TE, Carterra) with 0.5 mg/ml BSA (Sigma), the immobilized anti-MerTK antibodies were tested for their ability to bind to several forms of recombinant MerTK extracellular domain, including human, cynomolgus, and mouse orthologs as described above. Estimates of affinity were generated by injecting each analyte over the entire antibody array using the single channel flow cell. MerTK analytes were diluted to 33.3, 100, and 300 nM in running buffer, and injected in serial from lowest to highest concentration without regeneration. Two buffer blanks were run between each series (one species per series). Data were processed and analyzed using NextGenKIT high-throughput kinetics analysis software (Carterra).
(§3) The equilibrium dissociation constants (KD) were then calculated from the fitted association and dissociation rate constants (k-on and k-off) for anti-MerTK antibodies of the present disclosure. Binding kinetic analysis was also performed on anti-MerTK antibodies H1 (BioLegend, Clone ID: 590H11G1E3), H2 (R&D systems, Clone ID: 125518), M6 (WO2016/106221), and CDX AB2000-A7 hIgG1 (WO2019/084307).

[2] = target: T2, murine MerTK extracellular domain (ECD), recombinant (mouse, UniProt Q60805 19-497); experiment: SPR, Carterra LSA, antibody immobilised
T2 construct: also called moMerTK; mouse MerTK; not shown: polyHis tag or TEVS/Thrombin/murine IgG2a Fc tag
T2 sequence: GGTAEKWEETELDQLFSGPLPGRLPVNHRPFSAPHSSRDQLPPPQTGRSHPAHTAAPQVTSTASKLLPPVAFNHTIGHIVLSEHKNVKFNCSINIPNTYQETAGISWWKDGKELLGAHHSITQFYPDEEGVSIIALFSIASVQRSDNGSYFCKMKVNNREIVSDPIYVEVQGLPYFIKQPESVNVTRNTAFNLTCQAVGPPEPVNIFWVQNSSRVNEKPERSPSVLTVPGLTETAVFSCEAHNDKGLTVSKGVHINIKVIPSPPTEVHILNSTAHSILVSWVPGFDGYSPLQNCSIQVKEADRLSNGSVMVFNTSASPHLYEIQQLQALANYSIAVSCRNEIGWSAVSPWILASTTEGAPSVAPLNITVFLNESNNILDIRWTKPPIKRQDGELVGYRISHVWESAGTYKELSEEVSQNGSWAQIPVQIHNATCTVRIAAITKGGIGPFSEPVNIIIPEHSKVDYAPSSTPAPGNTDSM
Procedure: as §1, §2, §3

[3] = target: T3, cyno MerTK extracellular domain (ECD), recombinant (cynomolgus monkey, UniProt Q12866 21-505 (human entry)); experiment: SPR, Carterra LSA, antibody immobilised; LB = Low binding
T3 construct: also called cynomolgus MerTK; not shown: polyHis tag or TEVS/Thrombin/murine IgG2a Fc tag
T3 chain: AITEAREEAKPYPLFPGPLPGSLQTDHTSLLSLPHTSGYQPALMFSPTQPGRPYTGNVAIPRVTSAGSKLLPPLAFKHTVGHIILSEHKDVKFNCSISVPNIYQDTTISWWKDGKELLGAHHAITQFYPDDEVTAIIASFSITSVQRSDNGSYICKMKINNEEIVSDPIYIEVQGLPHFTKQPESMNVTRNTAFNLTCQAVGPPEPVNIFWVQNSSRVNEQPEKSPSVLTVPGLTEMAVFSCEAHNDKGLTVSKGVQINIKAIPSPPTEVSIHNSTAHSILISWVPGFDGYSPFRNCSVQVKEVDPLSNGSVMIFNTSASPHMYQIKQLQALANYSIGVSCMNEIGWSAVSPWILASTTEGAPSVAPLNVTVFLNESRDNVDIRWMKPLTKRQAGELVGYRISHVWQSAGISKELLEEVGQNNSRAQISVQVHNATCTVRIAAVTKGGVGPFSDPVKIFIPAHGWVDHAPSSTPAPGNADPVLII
Procedure: as §1
After priming with running buffer (HBS-TE, Carterra) with 0.5 mg/ml BSA (Sigma), the immobilized anti-MerTK antibodies were tested for their ability to bind to several forms of recombinant MerTK extracellular domain, including human, cynomolgus, and mouse orthologs as described above. […] Data were processed and analyzed using NextGenKIT high-throughput kinetics analysis software (Carterra).

[4] = target: T4, human Axl ECD construct (Full Axl) with linker+His+Avi tag (human, UniProt P30530 26-451); experiment: SPR, Carterra LSA, antibody immobilised, construct supernatant injected
T4 construct: tested as Expi293 supernatant; also called ECD domain of human Axl
T4 sequence: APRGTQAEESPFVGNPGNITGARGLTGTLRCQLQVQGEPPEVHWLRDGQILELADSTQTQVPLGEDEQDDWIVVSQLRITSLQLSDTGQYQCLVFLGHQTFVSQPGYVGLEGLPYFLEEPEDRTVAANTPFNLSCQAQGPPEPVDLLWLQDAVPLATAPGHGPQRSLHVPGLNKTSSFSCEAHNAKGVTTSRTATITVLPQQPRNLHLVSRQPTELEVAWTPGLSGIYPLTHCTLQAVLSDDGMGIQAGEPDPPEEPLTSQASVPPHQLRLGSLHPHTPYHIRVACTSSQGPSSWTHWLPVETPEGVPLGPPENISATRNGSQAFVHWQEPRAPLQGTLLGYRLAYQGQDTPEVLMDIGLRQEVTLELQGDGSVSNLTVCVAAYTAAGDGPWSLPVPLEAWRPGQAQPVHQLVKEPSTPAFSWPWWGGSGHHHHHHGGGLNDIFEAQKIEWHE
Procedure: Binding of anti-MerTK antibodies of the present disclosure to these domain-swapped chimera or deletion mutants (prepared as described above) was tested by Surface Plasmon Resonance (SPR) using Carterra LSA. Purified anti-MerTK antibodies were immobilized in duplicate on a HC30M chip (Carterra) by amine coupling, following the manufacturer's instructions (described previously). Supernatants containing the constructs were diluted 1:1 with running buffer containing 0.5 mg/mL BSA (HBS-TE, Carterra) and injected over the immobilized antibodies. The surface was regenerated with 10 mM Glycine pH2.0 after each construct injection. Sensorgrams were analyzed using Carterra Epitope software to identify patterns of construct binding. Loss of binding to MerTK constructs with domains deleted or swapped in from Axl and/or gain of binding to Axl constructs with MerTK domains swapped in were evaluated. Data from these studies was used to construct a domain binding map for anti-MerTK antibodies and their binding to various domains of human MerTK.

B1: MTK-22 (antibody, human IgG1, V domains shown)
VH: QVQLQQPGADLVEPGASVKLSCKASGYTFTSYWMHWVKQRPGQGLEWIGEIDPSDSSSNYNQKFKGKATLTVDKSSSTAYMHLNSLTSEDSAVYYCARRYYYGSLYFDNWGQGTTLTVSS
VL: DVVMTQSHKFMSTSVGDRVSITCKASQDVGTAIAWYQQKPGQSPKLLIYWASTRHTGVPDRFTGSRSGTVFTLTISNVQSEDLADYFCQQYTSYPLTFGSGTKLEIK
Question: What does the source list for B1?
Answer: Kd [1]: 54 nM; binding result [2]: no binding (tested: 300 nM); binding result [3]: binds; binding result [4]: no binding
